Source: patent US20140341916A1, “THERAPEUTIC COMBINATIONS AND METHODS OF TREATING MELANOMA” (Genentech, Inc., priority 2011, published 2014)

T1: ETBR (Homo sapiens, UniProt P24530)
T1 sequence (P24530 27-442): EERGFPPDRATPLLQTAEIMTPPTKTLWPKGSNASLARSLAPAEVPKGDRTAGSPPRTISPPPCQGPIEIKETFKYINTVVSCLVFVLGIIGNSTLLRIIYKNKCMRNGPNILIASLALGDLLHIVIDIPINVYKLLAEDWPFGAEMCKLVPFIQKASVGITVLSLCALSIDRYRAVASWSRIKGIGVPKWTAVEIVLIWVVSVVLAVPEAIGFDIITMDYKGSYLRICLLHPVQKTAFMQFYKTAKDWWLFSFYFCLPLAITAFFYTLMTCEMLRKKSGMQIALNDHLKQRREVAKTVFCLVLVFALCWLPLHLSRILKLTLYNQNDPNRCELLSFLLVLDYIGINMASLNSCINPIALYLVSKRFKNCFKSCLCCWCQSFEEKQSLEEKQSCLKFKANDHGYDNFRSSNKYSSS


Legend:
[1] = tested on: UACC-257X2.2 melanoma xenograft; test: In vivo efficacy, subcutaneous melanoma xenograft, tumor volume / % TGI; parameters: species or system mice; details: for % TGI Single Agent BRAFi vs. control / % TGI Single Agent Anti-ETBR ADC vs. control: UACC257-X2.2
Protocol: (§1) Next, efficacy studies were performed using the melanoma cells lines in the xenografts mouse models described above. All studies were conducted in accordance with the Guide for the Care and Use of Laboratory Animals (Ref: Institute of Laboratory Animal Resources (NIH publication no. 85-23), Washington, D.C.: National Academies Press; 1996). 10- to 14-week-old female CRL Nu/Nu or NCr nude mice from Charles River Laboratories were inoculated subcutaneously in the dorsal right flank with either 5×10^6 UACC-257X2.2 cells in HBSS with Matrigel or 5×10^6 A2058 cells in HBSS with Matrigel. When tumor volumes reached approximately 200 mm^3 (day 0), animals were randomized into groups of 10 each.
(§2) For single agent efficacy studies, the anti-ETBR ADC candidate Hu5E9v1-ADC was administered as a single intravenous (IV) injection on day 0 at 1 mpk, 3 mpk, or 6 mpk (mg/kg). A control ADC antibody and vehicle control were also administered. Average tumor volumes with standard deviations were determined from 10 animals per group. Tumor volumes were measured twice per week until study end.
To do this, the in vivo efficacy for various combinations of Hu5E9v1-ADC and BRAFi-945 were evaluated against the UACC-257X2.2 melanoma model described above. Tumors were grown to an average size of approximately 200 mm^3, whereupon animals were randomized into groups of 10 each. An appropriate vehicle control (Klucel LF) or BRAFi-945 at doses of 1 mpk, 6 mpk or 20 mpk were administered orally once a day×21 days beginning on study Day 0. A single 1 mpk or 3 mpk dose of Hu5E9v1-ADC or control, a histidine buffer #8, was administered intraveneously (after two doses of 945) via tail vein at study Day 1.
(§3) The average tumor volumes were determined from 10 animals per group. Tumor volumes were measured twice per week until study end. Tumor volumes were measured in two dimensions (length and width) using UltraCal IV calipers (Model 54 10 111, Fred V. Fowler Company; Newton, Mass.). The following formula was used with Excel, version 12.2.8 (Microsoft; Redmond, Wash.) to calculate tumor volume: Tumor Volume (mm3)=[…]
(§4) To analyze the repeated measurement of tumor volumes from the same animals over time, a mixed-modeling Linear Mixed Effects (LME) approach was used (Pinheiro et al. 2009). This approach can address both repeated measurements and a modest drop-out rate due to non-treatment-related termination of animals prior to study end. Cubic regression splines were used to fit a non-linear profile to the time courses of log 2 tumor volume at each dose level. These non-linear profiles were then related to dose within the mixed model. Tumor growth inhibition (TGI) as a percentage of vehicle was calculated as percent area under the fitted curve (AUC) per day in relation to the vehicle, using the following formula:
(§5) Using this formula, a TGI value of 100% indicates tumor stasis, of >1% but <100% indicates tumor growth delay, and of >100% indicates tumor regression. To get uncertainty intervals (UIs) for % TGI, the fitted curve and the fitted covariance matrix were used to generate a random sample as an approximation to the distribution of % TGI. The random sample is composed of 1000 simulated realizations of the fitted-mixed model, where the % TGI has been recalculated for each realization. Here, in the reported UI is the value for which 95% of the time, the recalculated values of % TGI will fall in this region given the fitted model. The 2.5 and 97.5 percentiles of the simulated distribution were used as the […] UIs.

ETBR = target: T1, ETBR; test: Scatchard analysis of antibody binding sites per cell with 125I-labeled Hu5E9v1-ADC; details: 4 h on ice, estimated
Protocol: A determination of antibody binding sites per cell was performed (Scatchard analysis): The affinity constant and the number of cell surface binding sites for each antibody were estimated by incubating the melanoma cells for 4 h on ice with a fixed concentration of ^125I-labeled Hu5E9v1-ADC combined with increasing concentrations of unlabeled Hu5E9v1-ADC. The data were analyzed by nonlinear curve fitting using an analysis program method.

A2058 melanoma cell line = test: In vitro cell killing, CellTiter-Glo cell viability; assay type: cell-based, human; details: A2058 (low ETBR copy number), 5 days
Protocol: (§6) The melanoma cell lines A2058 and UACC-257X2.2 were grown in appropriate media at 37° C. and 5% CO2. To assess the effects of Hu5E9v1-ADC on cell viability, cells were plated at 1,500 per well in 50 μL, of normal growth medium in 96-well clear-bottom black plates. Twenty-four hours later, an additional 50 μL, of culture medium with serial dilutions of Hu5E9v1-ADC concentrations was added to triplicate wells. Five days later, cell survival was determined using CellTiter-Glo Luminescent Cell Viability Reagent (G7572; Promega Corporation) and with an EnVision 2101 Mutilabel Reader (Perkin-Elmer).

[2] = tested on: UACC-257X2.2 melanoma cell line; test: as above; assay type: cell-based, human; details: UACC-257X2.2 (high ETBR copy number), 5 days
Protocol: as §6

A2058 melanoma xenograft = test: In vivo efficacy, subcutaneous melanoma xenograft, tumor volume / % TGI; parameters: species or system mice; details: for % TGI Single Agent Anti-ETBR ADC vs. control: A2058
Protocol: as §1, §2, §3, §4, §5
Tumors were grown to an average size of approximately 200 mm^3, whereupon animals were randomized into groups of 10 each. […] A single dose of Hu5E9v1-ADC at either 3 mpk or 6 mpk or control, a histidine buffer #8, was administered intraveneously into the tail vein on day 1 (after three doses of RG7204).
To do this, the in vivo efficacy for various combinations of Hu5E9v1-ADC and MEKi-623 and/or MEKi-973 were evaluated against A2058 and SK-MEL-23 and IPC-298 melanoma in vivo models, performed as described above in Example 4. An appropriate methylcellulose tween vehicle control (0.5% methylcellulose, 0.2% Tween-80 (MCT) or MEK inhibitor at doses of 1 mpk, 3 mpk or 7.5 mpk were administered orally once a day×21 days beginning on study Day 0. A single 3 mpk or 6 mpk dose of Hu5E9v1-ADC or control, a histidine buffer #8, was administered intraveneously (after two doses of a MEK inhibitor) via tail vein at study Day 1.

[3] = tested on: COLO 829 melanoma xenograft; test: as above; parameters: species or system mice
Protocol: The average tumor volumes were determined from 10 animals per group. Tumor volumes were measured twice per week until study end. Tumor volumes were measured in two dimensions (length and width) using UltraCal IV calipers (Model 54 10 111, Fred V. Fowler Company; Newton, Mass.). The following formula was used with Excel, version 12.2.8 (Microsoft; Redmond, Wash.) to calculate tumor volume: Tumor Volume (mm3)=(length×width)×0.5
To get uncertainty intervals (UIs) for % TGI, the fitted curve and the fitted covariance matrix were used to generate a random sample as an approximation to the distribution of % TGI. The random sample is composed of 1000 simulated realizations of the fitted-mixed model, where the % TGI has been recalculated for each realization. Here, in the reported UI is the value for which 95% of the time, the recalculated values of % TGI will fall in this region given the fitted model. The 2.5 and 97.5 percentiles of the simulated distribution were used as the upper and lower UIs.
The COLO 829 xenograft model was chosen as representative of medium levels of ETBR expression, further increasing the stringency of the combination studies. Tumors were grown to an average size of approximately 200 mm^3, whereupon animals were randomized into groups of 9 each. An appropriate vehicle control (Klucel LF) or G00044364.1-12 (RG7204) at doses of 10 mpk or 30 mpk were administered orally twice a day for 21 days starting on day 0.

[4] = Anti-ETBR ADC single dose 1 mg/kg
[5] = Anti-ETBR ADC single dose 3 mg/kg

Row | Molecule | % TGI Single Agent BRAFi vs. control ([1]; BRAFi Qdx21 1 mg/kg) | % TGI Single Agent BRAFi vs. control ([1]; BRAFi Qdx21 6 mg/kg) | % TGI Single Agent BRAFi vs. control ([1]; BRAFi Qdx21 20 mg/kg) | number of Hu5E9v1-ADC binding sites (ETBR; A2058 cells) | number of Hu5E9v1-ADC binding sites (ETBR; UACC-257X2.2 cells) | cell killing by ADC titration relative to control ADC (A2058 melanoma cell line) | cell killing by ADC titration relative to control ADC [2] | % TGI Single Agent Anti-ETBR ADC vs. control [1, 4] | % TGI Single Agent Anti-ETBR ADC vs. control [1, 5] | single agent efficacy, tumor volume ([1]; single IV dose 1 mg/kg on day 0) | single agent efficacy, tumor volume ([1]; single IV dose of 3 and 6 mg/kg on day 0) | % TGI Single Agent Anti-ETBR ADC vs. control (A2058 melanoma xenograft; [5]) | % TGI Single Agent Anti-ETBR ADC vs. control (A2058 melanoma xenograft; Anti-ETBR ADC single dose 6 mg/kg) | single agent efficacy, tumor burden (A2058 melanoma xenograft; single IV dose 3 mg/kg) | single agent efficacy, tumor burden (A2058 melanoma xenograft; single IV dose 6 mpk, relative to matching dose of control ADC or vehicle) | % TGI Single Agent Anti-ETBR ADC vs. control [3, 4] | % TGI Single Agent Anti-ETBR ADC vs. control [3, 5]
1 | Nc1ncnc2c(C(=O)Nc3c(Cl)ccc(NS(=O)(=O)CCCF)c3F)csc12 [BRAFi-945, 4-amino-N-(6-chloro-2-fluoro-3-(3-fluoropropylsulfonamido)phenyl)thieno[3,2-d]pyrimidine-7-carboxamide] | 66% | 109% | 136% |  |  |  |  |  |  |  |  |  |  |  |  |  | 
2 | Hu5E9v1-ADC: anti-ETBR antibody Hu5E9v1 conjugated to MMAE through a vc linker (antibody drug conjugate) (conjugate) VH: EVQLVESGGGLVQPGGSLRLSCAASGYTFTSYWMQWVRQAPGKGLEWIGTIYPGDGDTSYAQKFKGRATLSTDKSKNTAYLQMNSLRAEDTAVYYCARWGYAYDIDNWG VL: DIQMTQSPSSLSASVGDRVTITCKSSQSLLDSDGKTYLNWLQQKPGKAPKRLIYLVSKLDSGVPSRFSGSGSGTDFTLTISSLQPEDFATYYCWQGTHFPYTFGQGTKVEIK |  |  |  | 1,582 sites per cell | 33,939 sites per cell | specific cell killing relative to control ADC | specific cell killing relative to control ADC | 69% | 112% | efficacy was not apparent | sustained tumor regression | 39% | 85% | Efficacy was not apparent | partial reduction in tumor burden | 31% | 33%
